Source: patent US20040014132A1 (AstraZeneca / MedImmune, published 2004)

Biological target: Human eotaxin (human, UniProt P51671 24-97)
Assay: cell-based or functional assay

Human eotaxin, sequence (P51671 24-97 limits assumed): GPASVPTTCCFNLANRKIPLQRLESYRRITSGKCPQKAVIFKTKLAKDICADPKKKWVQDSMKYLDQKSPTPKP

Row | Binder | IC50, inhibition of eotaxin-induced Ca^2+ flux in CCR3 cells (area under the curve, FLIPR) | IC50, inhibition of eotaxin-mediated chemotaxis of CCR3 transfected L1.2 cells | geometric mean IC50, inhibition of eotaxin-evoked shape change of human eosinophils (forward scatter)
1 | CAT-212 (scFv, part only; not given: scFv linker and myc/His tag, V domains shown, not shown: another chain or arm of the molecule; small tags and cut ends) VH: QVQLVQSGGGVVQPGRSLRLSCAASGFTFSSYGMHWVRQAPGKGLEWVAVISYDGSIKHYADSVKGRFTISRDNSKNTLYLQMNSLRTDDTAVYYCAGDTDYGDIDPWGQGTMVTVSS VL: DIQMTQSPSSVSASVGDRVTITCRASQDISSWLAWYQQKPGKAPKLLIYAASSLQSGVPSRFSGSGSGTDFTLTISSLQPEDFATYYCQQASSFPSITFGQGTRLEIK | 5 nM | 0.65 nM | 
2 | CAT-213 (antibody, human IgG4, V domains shown) VH: QVQLVQSGGGVVQPGRSLRLSCAASGFTFSSYGMHWVRQAPGKGLEWVAVISYDGSIKHYADSVKGRFTISRDNSKNTLYLQMNSLRTDDTAVYYCAGDTDYGDIDPWGQGTMVTVSS VL: DIQMTQSPSSVSASVGDRVTITCRASQDISSWLAWYQQKPGKAPKLLIYAASSLQSGVPSRFSGSGSGTDFTLTISSLQPEDFATYYCQQASSFPSITFGQGTRLEIKR |  | 0.7 nM | 0.714 nM
